Measurements: article PMC6894071

Legend:
[1] = molecular target: EGFP-tagged bovine cationic amino acid transporter 1 (CAT1)/solute carrier family 7 member 1 (SLC7A1) (bovine) (UniProt F1N5P6); assay: flow cytometry on cells
[2] = molecular target: Feline CAT1/SLC7A1, endogenous in CC81-GREMG cells (feline (endogenous in CC81-GREMG)); assay: flow cytometry on cells

Bovine leukemia virus envelope glycoprotein (Env) on BLV particles (from UniProt P03380 34-301; P03380 302-515) (complex)
percent APC-EGFP double-positive cells at 1 h [1]: 18.7%
percent APC-EGFP double-positive cells at 2 h [1]: 23.7%
percent of cells bound with BLV particles (with control serum 1:10) [2]: 57%
percent of cells bound with BLV particles (with control serum 1:50) [2]: 49%
